Assay [1] has as its target human NL1(–A+B)_(ECTO), immobilised for SPR (human). Kind of assay: SPR; biotinylated NL_(ECTO)-Avitag variants captured from dialysed conditioned medium on streptavidin CM5 chip (500 RU; 550 RU for the ΔSite series; 1000 RU for NL3 and NL3 Arg451Cys in the R451C series); β-NRX1_(LNS6)(±4), MDGA1_(ECTO), MDGA2_(ECTO) injected, 15 concentrations, two-fold series from 50 μM; TBS-CTB (10 mM Tris pH 7.4, 150 mM NaCl, 3 mM CaCl2, 0.005% Tween-20, 1.0 g/L BSA); equilibrium analysis, 1:1 Langmuir model. In general terms: SPR reads the build-up and loss of mass on a sensor chip optically.

For assay [2], the target named is human NL1(–A–B)_(ECTO), biotinylated and immobilised for SPR (human). Described as above.
Sequence of human NL1(–A–B)_(ECTO), biotinylated and immobilised for SPR (human) (Q8N2Q7 whole entry): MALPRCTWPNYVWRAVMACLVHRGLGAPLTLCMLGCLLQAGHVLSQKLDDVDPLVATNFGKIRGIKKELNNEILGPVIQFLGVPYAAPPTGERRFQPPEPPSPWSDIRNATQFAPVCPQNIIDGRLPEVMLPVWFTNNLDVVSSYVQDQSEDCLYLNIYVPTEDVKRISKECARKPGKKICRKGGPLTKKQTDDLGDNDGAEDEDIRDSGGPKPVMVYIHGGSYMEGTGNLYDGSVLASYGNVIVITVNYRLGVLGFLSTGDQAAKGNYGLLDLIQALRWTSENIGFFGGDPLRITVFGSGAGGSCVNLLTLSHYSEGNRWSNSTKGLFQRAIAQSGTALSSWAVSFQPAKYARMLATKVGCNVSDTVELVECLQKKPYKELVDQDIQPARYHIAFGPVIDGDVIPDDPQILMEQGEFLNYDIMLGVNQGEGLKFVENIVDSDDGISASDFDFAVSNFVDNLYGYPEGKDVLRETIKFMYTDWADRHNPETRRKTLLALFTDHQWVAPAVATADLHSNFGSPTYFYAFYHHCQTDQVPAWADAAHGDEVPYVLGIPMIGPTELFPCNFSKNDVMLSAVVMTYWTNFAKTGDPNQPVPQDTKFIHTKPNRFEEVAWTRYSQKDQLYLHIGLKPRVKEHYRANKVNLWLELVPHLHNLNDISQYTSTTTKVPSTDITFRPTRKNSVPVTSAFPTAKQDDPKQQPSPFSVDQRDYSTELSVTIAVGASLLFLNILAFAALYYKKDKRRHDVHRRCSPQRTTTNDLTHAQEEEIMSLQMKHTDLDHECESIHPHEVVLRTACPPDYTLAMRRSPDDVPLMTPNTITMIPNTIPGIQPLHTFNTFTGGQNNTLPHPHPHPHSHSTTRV

Sequence of human NL1(–A+B)_(ECTO), immobilised for SPR (human) (Q8N2Q7 whole entry): as above

B1: human MDGA1 extracellular domain (MDGA1_(ECTO); Gln19-Lys925) (domain or fragment)
chain: QGVYAPAQAQIVHAGQACVVKEDNISERVYTIREGDTLMLQCLVTGHPRPQVRWTKTAGSASDKFQETSVFNETLRIERIARTQGGRYYCKAENGVGVPAIKSIRVDVQYLDEPMLTVHQTVSDVRGNFYQEKTVFLRCTVNSNPPARFIWKRGSDTLSHSQDNGVDIYEPLYTQGETKVLKLKNLRPQDYASYTCQVSVRNVCGIPDKAITFRLTNTTAPPALKLSVNETLVVNPGENVTVQCLLTGGDPLPQLQWSHGPGPLPLGALAQGGTLSIPSVQARDSGYYNCTATNNVGNPAKKTVNLLVRSMKNATFQITPDVIKESENIQLGQDLKLSCHVDAVPQEKVTYQWFKNGKPARMSKRLLVTRNDPELPAVTSSLELIDLHFSDYGTYLCMASFPGAPVPDLSVEVNISSETVPPTISVPKGRAVVTVREGSPAELQCEVRGKPRPPVLWSRVDKEAALLPSGLPLEETPDGKLRLERVSRDMSGTYRCQTARYNGFNVRPREAQVQLNVQFPPEVEPSSQDVRQALGRPVLLRCSLLRGSPQRIASAVWRFKGQLLPPPPVVPAAAEAPDHAELRLDAVTRDSSGSYECSVSNDVGSAACLFQVSAKAYSPEFYFDTPNPTRSHKLSKNYSYVLQWTQREPDAVDPVLNYRLSIRQLNQHNAVVKAIPVRRVEKGQLLEYILTDLRVPHSYEVRLTPYTTFGAGDMASRIIHYTEPINSPNLSDNTCHFEDEKICGYTQDLTDNFDWTRQNALTQNPKRSPNTGPPTDISGTPEGYYMFIETSRPRELGDRARLVSPLYNASAKFYCVSFFYHMYGKHIGSLNLLVRSRNKGALDTHAWSLSGNKGNVWQQAHVPISPSGPFQIIFEGVRGPGYLGDIAIDDVTLKKGECPRKQTDPNK
The Kd is the concentration at which binding is half-saturated. A high value points to weaker binding. In assay [1], B1 returned a fold weaker than with NL1(–A–B) (ECTO) of 7 fold. This molecule gave a Kd in assay [2] of 2000 nM.

B2: human MDGA2 extracellular domain (MDGA2_(ECTO); Gln21-Lys927) (domain or fragment)
chain: QGVYAPPTVRIVHSGLACNIEEERYSERVYTIREGETLELTCLVTGHPRPQIRWTKTAGSASDRFQDSSVFNETLRITNIQRHQGGRYYCKAENGLGSPAIKSIRVDVYYLDDPVVTVHQSIGEAKEQFYYERTVFLRCVANSNPPVRYSWRRGQEVLLQGSDKGVEIYEPFFTQGETKILKLKNLRPQDYANYSCIASVRNVCNIPDKMVSFRLSNKTASPSIKLLVDDPIVVNPGEAITLVCVTTGGEPAPSLTWVRSFGTLPEKTVLNGGTLTIPAITSDDAGTYSCIANNNVGNPAKKSTNIIVRALKKGRFWITPDPYHKDDNIQIGREVKISCQVEAVPSEELTFSWFKNGRPLRSSERMVITQTDPDVSPGTTNLDIIDLKFTDFGTYTCVASLKGGGISDISIDVNISSSTVPPNLTVPQEKSPLVTREGDTIELQCQVTGKPKPIILWSRADKEVAMPDGSMQMESYDGTLRIVNVSREMSGMYRCQTSQYNGFNVKPREALVQLIVQYPPAVEPAFLEIRQGQDRSVTMSCRVLRAYPIRVLTYEWRLGNKLLRTGQFDSQEYTEYAVKSLSNENYGVYNCSIINEAGAGRCSFLVTGKAYAPEFYYDTYNPVWQNRHRVYSYSLQWTQMNPDAVDRIVAYRLGIRQAGQQRWWEQEIKINGNIQKGELITYNLTELIKPEAYEVRLTPLTKFGEGDSTIRVIKYSAPVNPHLREFHCGFEDGNICLFTQDDTDNFDWTKQSTATRNTKYTPNTGPNADRSGSKEGFYMYIETSRPRLEGEKARLLSPVFSIAPKNPYGPTNTAYCFSFFYHMYGQHIGVLNVYLRLKGQTTIENPLWSSSGNKGQRWNEAHVNIYPITSFQLIFEGIRGPGIEGDIAIDDVSIAEGECAKQDLATK
With B2, in assay [1], the fold weaker than with NL1(–A–B) (ECTO) was determined as 7 fold. The same molecule displayed a Kd in assay [2] of 1000 nM.

(Values after publication PMC5563082.)
